# B1: MMP24, Q9Y5R2 (peptide)
# chain: YYKRPVQEWV
# B2: KIF17, Q9P2E2 (peptide)
# chain: SKSNFGSEPL
# Molecular target: T1, APBA2_2, Q99767
# T1 sequence (Q99767 654-744, limits assumed, looked up): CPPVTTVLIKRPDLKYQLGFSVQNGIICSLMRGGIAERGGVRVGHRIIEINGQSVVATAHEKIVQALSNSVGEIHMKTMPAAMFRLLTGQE
# Test: holdup assay
# Design: key: below the threshold = too weak to quantify, mostly under pKd 3.1 to 4
# Settings: plain residues with an end cap or a label only (N-terminal biotin on a linker: ado-ado)
row,Binder,pKd
1,B1,below the threshold
2,B2,below the threshold

# Molecular target: T2, ARHGAP21, Q5T5U3
# T2 sequence (Q5T5U3 45-169, limits assumed, looked up): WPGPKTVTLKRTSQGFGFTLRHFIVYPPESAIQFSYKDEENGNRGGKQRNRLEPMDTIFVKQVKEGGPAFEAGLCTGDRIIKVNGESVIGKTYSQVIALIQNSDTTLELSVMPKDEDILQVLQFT
# Test: holdup assay
# Design: key: below the threshold = too weak to quantify, mostly under pKd 3.1 to 4
# Settings: plain residues with an end cap or a label only (N-terminal biotin on a linker: ado-ado)
row,Binder,pKd
1,B1,below the threshold
2,B2,3.56

# Molecular target: T3, DFNB31_2, Q9P202
# T3 sequence (Q9P202 274-371, limits assumed, looked up): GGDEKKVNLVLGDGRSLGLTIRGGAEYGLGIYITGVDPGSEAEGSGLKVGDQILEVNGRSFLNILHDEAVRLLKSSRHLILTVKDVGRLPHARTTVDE
# Test: holdup assay
# Design: key: below the threshold = too weak to quantify, mostly under pKd 3.1 to 4
# Settings: plain residues with an end cap or a label only (N-terminal biotin on a linker: ado-ado)
row,Binder,pKd
1,B1,below the threshold
2,B2,below the threshold

# Molecular target: DLG1_2, Q12959
# Test: holdup assay
# Design: key: below the threshold = too weak to quantify, mostly under pKd 3.1 to 4
# Settings: plain residues with an end cap or a label only (N-terminal biotin on a linker: ado-ado)
# Sequence of DLG1_2, Q12959 (Q12959 314-412): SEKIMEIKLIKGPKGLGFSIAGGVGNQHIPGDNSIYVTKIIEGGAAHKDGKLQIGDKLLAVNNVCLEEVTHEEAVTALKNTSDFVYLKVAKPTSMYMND
row,Binder,pKd
1,B1,3.99
2,B2,below the threshold

# Molecular target: DLG2_2, Q15700
# Test: holdup assay
# Design: key: below the threshold = too weak to quantify, mostly under pKd 3.1 to 4
# Settings: plain residues with an end cap or a label only (N-terminal biotin on a linker: ado-ado)
row,Binder,pKd
1,B1,3.62
2,B2,below the threshold

# Molecular target: DLG2_3, Q15700
# Test: holdup assay
# Design: key: below the threshold = too weak to quantify, mostly under pKd 3.1 to 4
# Settings: plain residues with an end cap or a label only (N-terminal biotin on a linker: ado-ado)
row,Binder,pKd
1,B1,3.7
2,B2,below the threshold

# Molecular target: T4, DLG3_1, Q92796
# T4 sequence (Q92796 125-227, limits assumed, looked up): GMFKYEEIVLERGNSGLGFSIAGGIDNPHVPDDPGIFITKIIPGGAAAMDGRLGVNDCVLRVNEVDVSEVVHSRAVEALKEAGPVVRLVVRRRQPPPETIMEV
# Test: holdup assay
# Design: key: below the threshold = too weak to quantify, mostly under pKd 3.1 to 4
# Settings: plain residues with an end cap or a label only (N-terminal biotin on a linker: ado-ado)
row,Binder,pKd
1,B1,below the threshold
2,B2,below the threshold

# Molecular target: HTRA1, Q92743
# Test: holdup assay
# Design: key: below the threshold = too weak to quantify, mostly under pKd 3.1 to 4
# Settings: plain residues with an end cap or a label only (N-terminal biotin on a linker: ado-ado)
# Sequence of HTRA1, Q92743 (Q92743 360-477): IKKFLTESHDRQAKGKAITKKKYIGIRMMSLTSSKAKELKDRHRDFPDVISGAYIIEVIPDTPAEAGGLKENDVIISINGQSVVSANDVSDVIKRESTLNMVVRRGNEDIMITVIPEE
row,Binder,pKd
1,B1,4.5
2,B2,below the threshold

# Molecular target: IL16_3, Q14005
# Test: holdup assay
# Design: key: below the threshold = too weak to quantify, mostly under pKd 3.1 to 4
# Settings: plain residues with an end cap or a label only (N-terminal biotin on a linker: ado-ado)
# Sequence of IL16_3, Q14005 (Q14005 1107-1207): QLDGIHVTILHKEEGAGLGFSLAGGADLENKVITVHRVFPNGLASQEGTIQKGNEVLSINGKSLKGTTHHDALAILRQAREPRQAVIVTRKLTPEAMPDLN
row,Binder,pKd
1,B1,below the threshold
2,B2,below the threshold

# Molecular target: T5, LIN7A, O14910
# T5 sequence (O14910 103-200, limits assumed, looked up): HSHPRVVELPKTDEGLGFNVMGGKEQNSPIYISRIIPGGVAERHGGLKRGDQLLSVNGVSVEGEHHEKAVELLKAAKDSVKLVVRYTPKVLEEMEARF
# Test: holdup assay
# Design: key: below the threshold = too weak to quantify, mostly under pKd 3.1 to 4
# Settings: plain residues with an end cap or a label only (N-terminal biotin on a linker: ado-ado)
row,Binder,pKd
1,B1,below the threshold
2,B2,below the threshold

# Molecular target: T6, LRRC7, Q96NW7
# T6 sequence (Q96NW7 1440-1537, limits assumed, looked up): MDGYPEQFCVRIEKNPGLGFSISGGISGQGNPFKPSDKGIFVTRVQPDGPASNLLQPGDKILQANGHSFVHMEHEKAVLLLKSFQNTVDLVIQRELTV
# Test: holdup assay
# Design: key: below the threshold = too weak to quantify, mostly under pKd 3.1 to 4
# Settings: plain residues with an end cap or a label only (N-terminal biotin on a linker: ado-ado)
row,Binder,pKd
1,B1,4.03
2,B2,below the threshold

# Molecular target: MAGI2_5, Q86UL8
# Test: holdup assay
# Design: key: below the threshold = too weak to quantify, mostly under pKd 3.1 to 4
# Settings: plain residues with an end cap or a label only (N-terminal biotin on a linker: ado-ado)
# Sequence of MAGI2_5, Q86UL8 (Q86UL8 915-1017): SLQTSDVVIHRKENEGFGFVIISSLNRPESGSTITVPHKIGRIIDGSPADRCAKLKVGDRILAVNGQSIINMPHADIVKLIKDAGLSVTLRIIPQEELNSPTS
row,Binder,pKd
1,B1,below the threshold
2,B2,below the threshold

# Molecular target: MAST1, Q9Y2H9
# Test: holdup assay
# Design: key: below the threshold = too weak to quantify, mostly under pKd 3.1 to 4
# Settings: plain residues with an end cap or a label only (N-terminal biotin on a linker: ado-ado)
# Sequence of MAST1, Q9Y2H9 (Q9Y2H9 962-1065): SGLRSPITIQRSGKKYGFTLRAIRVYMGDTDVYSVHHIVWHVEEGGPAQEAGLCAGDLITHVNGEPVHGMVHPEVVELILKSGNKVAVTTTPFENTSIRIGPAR
row,Binder,pKd
1,B1,below the threshold
2,B2,3.61

# Molecular target: T7, MPDZ_10, O75970
# T7 sequence (O75970 1624-1722, limits assumed, looked up): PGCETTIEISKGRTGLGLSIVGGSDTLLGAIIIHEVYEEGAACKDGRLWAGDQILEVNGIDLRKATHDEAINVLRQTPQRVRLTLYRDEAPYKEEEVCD
# Test: holdup assay
# Design: key: below the threshold = too weak to quantify, mostly under pKd 3.1 to 4
# Settings: plain residues with an end cap or a label only (N-terminal biotin on a linker: ado-ado)
row,Binder,pKd
1,B1,below the threshold
2,B2,below the threshold

# Molecular target: T8, MPDZ_12, O75970
# T8 sequence (O75970 1857-1958, limits assumed, looked up): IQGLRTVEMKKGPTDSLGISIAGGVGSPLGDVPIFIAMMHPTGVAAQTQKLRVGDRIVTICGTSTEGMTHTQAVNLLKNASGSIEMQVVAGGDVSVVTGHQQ
# Test: holdup assay
# Design: key: below the threshold = too weak to quantify, mostly under pKd 3.1 to 4
# Settings: plain residues with an end cap or a label only (N-terminal biotin on a linker: ado-ado)
row,Binder,pKd
1,B1,4.39
2,B2,below the threshold

# Molecular target: T9, MPDZ_5, O75970
# T9 sequence (O75970 695-796, limits assumed, looked up): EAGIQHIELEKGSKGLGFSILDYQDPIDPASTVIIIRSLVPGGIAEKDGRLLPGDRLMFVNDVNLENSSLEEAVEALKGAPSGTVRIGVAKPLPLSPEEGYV
# Test: holdup assay
# Design: key: below the threshold = too weak to quantify, mostly under pKd 3.1 to 4
# Settings: plain residues with an end cap or a label only (N-terminal biotin on a linker: ado-ado)
row,Binder,pKd
1,B1,4.03
2,B2,below the threshold

# Molecular target: T10, NHERF3_1, Q5T2W1
# T10 sequence (Q5T2W1 4-100, limits assumed, looked up): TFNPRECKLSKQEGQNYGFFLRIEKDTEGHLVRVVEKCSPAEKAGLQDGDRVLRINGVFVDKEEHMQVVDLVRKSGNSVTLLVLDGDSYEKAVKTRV
# Test: holdup assay
# Design: key: below the threshold = too weak to quantify, mostly under pKd 3.1 to 4
# Settings: plain residues with an end cap or a label only (N-terminal biotin on a linker: ado-ado)
row,Binder,pKd
1,B1,4.24
2,B2,3.94

# Molecular target: T11, NHERF3_4, Q5T2W1
# T11 sequence (Q5T2W1 373-468, limits assumed, looked up): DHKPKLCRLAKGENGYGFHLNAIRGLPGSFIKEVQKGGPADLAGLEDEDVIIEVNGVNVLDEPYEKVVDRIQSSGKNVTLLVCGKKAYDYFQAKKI
# Test: holdup assay
# Design: key: below the threshold = too weak to quantify, mostly under pKd 3.1 to 4
# Settings: plain residues with an end cap or a label only (N-terminal biotin on a linker: ado-ado)
row,Binder,pKd
1,B1,below the threshold
2,B2,below the threshold

# Molecular target: NOS1, P29475
# Test: holdup assay
# Design: key: below the threshold = too weak to quantify, mostly under pKd 3.1 to 4
# Settings: plain residues with an end cap or a label only (N-terminal biotin on a linker: ado-ado)
# Sequence of NOS1, P29475 (P29475 9-101): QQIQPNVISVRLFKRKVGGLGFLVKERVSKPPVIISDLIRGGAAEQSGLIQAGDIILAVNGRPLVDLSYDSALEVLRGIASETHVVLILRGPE
row,Binder,pKd
1,B1,4.39
2,B2,below the threshold

# Molecular target: T12, PDZRN3_1, Q9UPQ7
# T12 sequence (Q9UPQ7 244-349, limits assumed, looked up): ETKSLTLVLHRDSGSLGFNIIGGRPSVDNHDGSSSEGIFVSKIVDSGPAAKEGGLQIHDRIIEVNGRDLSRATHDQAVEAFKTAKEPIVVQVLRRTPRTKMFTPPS
# Test: holdup assay
# Design: key: below the threshold = too weak to quantify, mostly under pKd 3.1 to 4
# Settings: plain residues with an end cap or a label only (N-terminal biotin on a linker: ado-ado)
row,Binder,pKd
1,B1,below the threshold
2,B2,below the threshold

# Molecular target: PICK1, Q9NRD5
# Test: holdup assay
# Design: key: below the threshold = too weak to quantify, mostly under pKd 3.1 to 4
# Settings: plain residues with an end cap or a label only (N-terminal biotin on a linker: ado-ado)
# Sequence of PICK1, Q9NRD5 (Q9NRD5 17-115): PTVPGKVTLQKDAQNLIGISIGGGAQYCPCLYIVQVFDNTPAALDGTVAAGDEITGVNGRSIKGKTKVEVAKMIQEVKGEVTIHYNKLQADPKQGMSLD
row,Binder,pKd
1,B1,below the threshold
2,B2,below the threshold

# Molecular target: PTPN3, P26045
# Test: holdup assay
# Design: key: below the threshold = too weak to quantify, mostly under pKd 3.1 to 4
# Settings: plain residues with an end cap or a label only (N-terminal biotin on a linker: ado-ado)
# Sequence of PTPN3, P26045 (P26045 505-587): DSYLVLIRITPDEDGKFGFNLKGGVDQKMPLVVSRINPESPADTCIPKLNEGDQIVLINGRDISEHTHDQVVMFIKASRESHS
row,Binder,pKd
1,B1,3.88
2,B2,3.95

# Molecular target: TJP1_2, Q07157
# Test: holdup assay
# Design: key: below the threshold = too weak to quantify, mostly under pKd 3.1 to 4
# Settings: plain residues with an end cap or a label only (N-terminal biotin on a linker: ado-ado)
# Sequence of TJP1_2, Q07157 (Q07157 181-274): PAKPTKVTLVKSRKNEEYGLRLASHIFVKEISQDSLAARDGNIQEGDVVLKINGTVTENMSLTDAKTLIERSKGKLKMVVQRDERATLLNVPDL
row,Binder,pKd
1,B1,4.1
2,B2,below the threshold

# Molecular target: T13, TX1BP3, O14907
# T13 sequence (O14907 10-122, limits assumed, looked up): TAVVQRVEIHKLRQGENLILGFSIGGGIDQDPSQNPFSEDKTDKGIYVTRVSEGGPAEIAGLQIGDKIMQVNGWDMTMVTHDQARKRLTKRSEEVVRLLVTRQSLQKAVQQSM
# Test: holdup assay
# Design: key: below the threshold = too weak to quantify, mostly under pKd 3.1 to 4
# Settings: plain residues with an end cap or a label only (N-terminal biotin on a linker: ado-ado)
row,Binder,pKd
1,B1,3.87
2,B2,5.05
